This data set is described as follows: label from the status in PepcDB records.
As to “MQSVWFYMGKSFKIHCLTYIIFILQWLIFLSCKKHYKGEKVDRKAGVILFWHGKLALMPFAFRHYRQKNKKAYVMISHHKDGEQIAKIIKLFGLDTVRGSTSRGASSALRAAFKVLEQNDDIVITPDGPRGPYHSISDGSIILAQKKELKIRILNYEANRFWKFKSWDKMILPKPFSKITYSLSEPLDILSLDKEKAKEFLMKQFDKISLADQFKE”, the protein production entry is on record as “failed”.

With “MVKKGFLTGLLLFGIFFGAGNLIFPPALGVASGQDFWPAILGFCLSGVGLAIITLLLGTLTNGGYKTEMSEKFSPWFSLTFLVILYLTIGPLFAIPRTATVSFEIGVAPIVGHSPIALLCFTACFFAAAYYLAIRPNGILDSVGKILTPVFAFLILSLVVVGAIAYGNLESAKASADYAGKAFGSGVLAGYNTLDALAAVAFCLVATETLKKFGFKTKKEYLSTIWIVGIVTSLAFSILYIGLGFLGNKFPVPADILADPNVNKGAYVLSQASYKLFGNFGRYFLSIMVTLTCFTTTVGLIVSVSEFFDKNFRFGNYKLFATVFTLIGFLIANLGLNAVITFSVPVLTLLYPIVIVIVLIILINKWLPLSKKGMSLTIGLVTLVSFVEVLAGQWQEKTLTQLVGFLPFHTISMGWLVPMLIGIVFSLVLSDKQKGQAFDLEKFEG”, the protein production result is on record as “failed”. As for “MKIFKKSDISGIFHELGILISTIGFIMLLPSFIGIYFHEPFFYFLFPSLFFMILGLLINKITKPISVKLKHAMVISALAWLMASLIGAIPFYIGIEYFSYLDGVFESMSAWTTTGFSIVGDVESLPRTLQFWRSFEQWIGGVGVLAMVITILSKAGASAYYRAEAREEKIMPSTIGTIKKIWQIYLLYTTIGICLLYLSGLNLWSALNICMCGISTGGMSISNQSFPFNNFAKIIMTLIMYIGGVVSFSVHHNVLTGRRVDDIQTKTSIPILFFAAFVITLTSGIDPLDSLFTVVSAMTSTGFSSVQISSLTNISIAVLIFVMAIGGATGTTTGGIKLIRLVIMAKGFYYRLKEVVSPGNAIIYKKIGKNQLSDFLILDAFIIAFAYIIHYLFGTLVLISLGYDPFLSVFESVSLVANMGLSVDIVNHSLHPIAKILGVFSMWVGRLEIIPIYVLIILPLYLKLKDVGKNKISKNRKL”, the protein production result is “failed”. On to “MKIYLVGGAVRDALLGLPVKDKDWVVVGATPQEMLDAGYQQVGRDFPVFLHPQTHEEYALARTERKSGSGYTGFTCYAAPDVTLEADLQRRDLTINALARDDAGQIIDPYHGRRDLEARLLRHVSPAFGEDPLRVLRVARFAARYAHLSFRIADETLALMREMTAAGELEHLTPERVWKETENALTTRNPQVYFQVLRDCGALRVLFPEIDALFGVPAPAKWHPEIDTGVHTLMTLSMAAMLSPQLDVRFATLCHDLGKGLTPKNLWPRHHGHGPAGVKLVEQLCQRLRVPNDLRDLAKLVAEYHDLIHTFPILQPKTIVKLFDAIDAWRKPQRVEQIALTSEADVRGRTGFEASDYPQGRWLREAWQVAQAVPTKEVVEAGFKGIEIREELTKRRIAAVANWKEKRCPNPAS”, for which the protein production result is recorded as “failed”. For “MALRKIAGLYRIEKFIRERPVEKIRQWRQRYSRPIVNDLFAWPEEQEPCCPPDGPLNKAINYILNRRDELSCFLSDGAVPLDNNICERAIRPVVMGRKAWLFAGSLMAGNRAAQIMSLLETAKRNGLEPHAWLTDVLTRLPEWPEDRLEELLPLEGFTFSG”, the protein production result is recorded as “failed”.

On to “SVFPQQTGQLAELQPQDRAGARASWMPMFQRRRRRDTHFPICIFCCGCCHRSKCGMCCKT”, for which the protein production entry is given as “failed”. On to “MQGGRFMGNKNLIITIEREYGSGGRIVGKKLAEELGIHFYDDDILKLASEKSAVGEQFFRLADEKAGNNLLYRLGGGRKIDLHSKPSPNDKLTSPENLFKFQSEVMRELAESEPCIFVGRAAGYVLDQDEDIERLIRIFVYTDKVKKVQRVMEVDCIDEERAKRRIKKIEKERKEYYKYFTGSEWHSMKNYDLPINTTKLTLEETAELIKAYIRLKGFMD”, for which the protein production entry is reported as “not failed”. The value for “MNLLIENIRGISYALVSPTLSLMLIVIAIIFYFKNRKIAFMQKLMLGRSIQSPLEMTLLQILIGILGGLIASLLLSILGVTFENSSLIDVILTVSVFSVLYKNRFLKFPYIAALLGVIGVLVSKNTEYFGRGFSFSINLTSIIVLIGVFSIVEGILAMIDGDKGYLPIFTQKDGKLVGGFGFKRFWALPLCLLVVLGANSGNSIINEVKDLPQWLPFFNGDKARALMSVAALGTLAAYGATSYEGTTFTQSKRSKTITSGLINIAYGIVVIILAYLLKESLVFTIALIILIPLLYELRIRMELKLESLREPLYFSNDDEICILDVLPNSIAYKKGLRSGDKIVKINEEIPKNEKEVFMAIKRNFYGLDLEIRKNNGNIEKHTITGEDRGKQFGIVLVPKGISFDKEIDEFLEKLKKASKDEEVKNK” was “failed”; that for “MKLKSLLLRYYPPGIMLEYEKHGELKTKSIDLLDLGPSTDVSALVEEIQKAEPLLTASRTEQVKLLIQRLQEKLGQNSNHTFYLFKVLKAHILPLTNVALNKSGSCFITGSYDRTCKLWDSASGEELNTLEGHRNVVYAIAFNNPYGDKIATGSFDKTCKLWSVETGKCYHTFRGHTAEIVCLSFNPQSTLVATGSMDTTAKLWDIQNGEEVYTLRGHSAEIISLSFNTSGDRIITGSFDHTVVVWDADTGRKVNILIGHCAEISSASFNWDCSLILTGSMDKTCKLWDATNGKCVATLTGHDDEILDSCFDYTGKLIATASADDGVSLCRPGRSAVARSWLTATCASQVQAILLPQPPELCHVLGNHV” was “failed”; that for “MIWIVGSGTCRGQTTERAKEIIERAEVIYGSRRALELAGVVDDSRARILRSFKGDEIRRIMEEGREREVAVISTGDPMVAGLGRVLREIAEDVEIKIEPAISSVQVALARLKVDLSEVAVVDCHAKDFDAELTELLKYRHLLILADSHFPLERLGKRRVVLLENLCMEGERIREGNADSIELESDYTIIFVEREVME” was “not failed”. For “MAFGSFARSGGSSRFLFTAGRMAQQLTVSIGQASSPGRKPVNQDFYGALIPAEPLLITKGIALALADGISSSDISQVASESAVKSFLTDYYCTSEAWSVKSSAQRVIAATNSWLHAETRRSDYRYDRDKGYVCTLSALVIKGAAAHLFHIGDSRIYRLAGASLEQLTEDHRVRLSAEQSYLGRALGVNPQVEIDYLSVPIGSGDLFVLATDGVYEHVAHRFVVQTLRDHGDDLDAAARAIVGEAFNNGSDDNLTVQVVRIESVPGADSIDLFERVAELPLPPLLEPRAEFDGYRIIRELHGSSRSHIYLASDLATGELVVLKIPSADLRDDPEYRKRFMLEEWAARRIDSPHVLKPCVVQRPRSYLYVTFEYIEGQTLAQWMIDHPRAELETVRGLIEQIAKGLYAFHRKEMVHQDLRPANVLIDRSGTVKIIDFGSVRVAGVAELGPAGGDELLGTVQYMAPEYFAGQGGSALSDQFSLGVIAYQMLTGRLPYGAELARANQALKSRKLRYSAAADHNAKVPVWVDRALQRAVSLDPAKRYPALSEFVHDLRHPRADYLDARPQPLAARNPLLFLQLLSALLALIVVGLLARLHGSI”, the protein production entry is “failed”.

For “MDLAGQGQYGQVYLAVNRESGDLVAIKVLSERQLLTRGFLRELNFLLTLQHPHVVGCQAIDYIRVHHSPQVSRSLVMDYCAGGTLRSLLEQEQALPLTTALRLTLDILSALAYAHHRGILHCDLKPENILLEVTATGWQAKVSDFGVARLIEDVKGSGQTGSPAYMAPERFYGQTMPASDLYAVGILLYEMIVGDRPFHGTPAELMAAHLSRPYTLPEGLPFLVRSIIAKALDKLPQRRYKSAAEMTMAVQLALEVIEAEHHQQPLLFSRSPAAVWLGEPQGFALPRLPQQVASTATGFYGVVGDRLWAWQARETIPEATAQWPLPPLPIQLYGSEVSAWLRINALPPQLFCIHDQLIPLDGHLPSTLNPLTIDARGYWWAETQIDSAAAELQLHVQLINGQGRRTLRCQWHGRTFVDTLLLNRRYGAVISRSQDPETAHPITHFQLFDRRGHWRLYTPLPAHLTLLTPAHHQPWQVAAFEDHPQQPLLVLLHLRPWRIQRLGLRFRPQFLCATPWGYVVAGRHSLNLVTHSGEIVGTAESEQEIDGLGFTGDRHLWLIRRQGSGCVIQTWDITTWDIHLIL”, the protein production entry is reported as “failed”. As to “MSVYHHILLAVDFSSEDSQVVQKVRNLASQIGARLSLIHVLDNIPMPDTPYGTAIPLDTETTYDAMLDVEKQKLSQIGNTLGIDPAHRWLVWGEPREEIIRIAEQENVDLIVVGSHGRHGLALLLGSTANSVLHYAKCDVLAVRLRDD”, the protein production entry is listed as “not failed”. The same measure for “TLRKARVKGLFLLSSGLQFSQSDHHPGGIPLAVIRHMSRQLKRNRTDTLTSFYEQMFSESEKSHGLDQAFLQTLEAGDPFYHWQNESLIAGLDYLANVQLLQGWPTVSVPITWIHGSDDTICPSPASGLFSPSKRLIIVEGAGHVPFYTQDSVVINAWEELLGN”: “failed”.

For “SYVQDYRSPFIASVSDQHGVVYITENKNKTVVIPCLGSISNLNVSLCARYPEKRFVPDGNRISWDSKKGFTIPSYMISYAGMVFCEAKINDESYQSIMYIVVVVGYRIYDVVLSPSHGIELSVGEKLVLNCTARTELNVGIDFNWEYPSSKHQHKKLVNRDLKTQSGSEMKKFLSTLTIDGVTRSDQGLYTCAASSGLMTKKNSTFVRVHEKPFVAFGSG”, the protein production result is “not failed”.

For “MDLKTSYKGISLNPIYAGSSAVATVSENGKILATPVLDEINIIDLTPGSRKILHKISNEDEQEITALKLTPDGQYLTYVSQAQLLKIFHLKTGKVVRSMKISSPSYILDADSTSTLLAVGGTDGSIIVVDIENGYITHSFKGHGGTISSLKFYGQLNSKIWLLASGDTNGMVKVWDLVKRKCLHTLQEHTSAVRGLDIIEVPDNDEPSLNLLSGGRDDIINLWDFNMKKKCKLLKTLPVNQQVESCGFLKDGDGKRIIYTAGGDAIFQLIDSESGSVLKRTNKPIEELFIIGVLPILSNSQMFLVLSDQTLQLINVEEDLKNDEDTIQVTSSIAGNHGIIADMRYVGPELNKLALATNSPSLRIIPVPDLSGPEASLPLDVEIYEGHEDLLNSLDATEDGLWIATASKDNTAIVWRYNENSCKFDIYAKYIGHSAAVTAVGLPNIVSKGYPEFLLTASNDLTIKKWIIPKPTASMDVQIIKVSEYTRHAHEKDINALSVSPNDSIFATASYDKTCKIWNLENGELEATLANHKRGLWDVSFCQYDKLLATSSGDKTVKIWSLDTFSVMKTLEGHTNAVQRCSFINKQKQLISCGADGLIKIWDCSSGECLKTLDGHNNRLWALSTMNDGDMIVSADADGVFQFWKDCTEQEIEEEQEKAKLQVEQEQSLQNYMSKGDWTNAFLLAMTLDHPMRLFNVLKRALGESRSRQDTEEGKIEVIFNEELDQAISILNDEQLILLMKRCRDWNTNAKTHTIAQRTIRCILMHHNIAKLSEIPGMVKIVDAIIPYTQRHFTRVDNLVEQSYILDYALVEMDKLF”, the protein production entry is “failed”. For the sequence “MQLSIEEVKKLDSNSYQIIDIRSEEEVAHGAIKGALNIQAEEIESDERVPHDKKLVIVCSRGKTSVDVAEYLTEKGFDAASLKGGYISWLLDAMKEDEVAERDIKADVEQSIRKKFKKSIWRKFTKAINTYELVKPGDKIAVCISGGKDSMLMAKLFQELKHHNKFDFDVKFLVMDPGYNEANRHVIEENCRNLGIPATIFESDIFDAVYDIEKSPCYLCARMRRGHLYAFAKELGCNKIALGHHYDDVIETILMGMLYGAQVQTMMPKLHSTNFEGMELIRPLYLVREDDIKAWRDYNGLHFIQCACKFTDTCTTCNNEENRSKRVEIKQLIANLKKVNPFVEANIFKSVENVNLATVVAYKKDGIKHSFLDHYDE”, the protein production result was “failed”.
